According to US9518268B2, “Drought tolerant transgenic plants and method of making same” (PURDUE RESEARCH FOUNDATION, priority 2013, dated 2016):

Legend:
Experiment in all cases: Phosphatase activity assay (pNPP) with purified PP2Cs and PYLs
ABI1 [1] = assay type: biochemical, Arabidopsis thaliana; settings: in the presence of 10 μM ABA; ABI1 and PYLs 0.3 μM
Procedure: (§1) The inhibition by PYL13 is ABA-independent, whereas the inhibition by PYR1 and PYL2 is ABA-induced (FIG. 4B). […] The phosphatase activities of PP2CA, ABI1, and ABI2 were measured in the absence or presence of ABA (1.25 μM), and with or without PYLs. The concentration of PP2Cs and PYLs was 0.3 μM. The A405 value of reaction without PP2C was set as 0% and that of the reaction with PP2C but without ABA and PYLs was set as 100%. Error bars indicate s.e.m. (n=6 for PP2CA and ABI2, and n=3 for ABI1).
(§2) To test the functional significance of potential heterodimer formation between PYL13 and other PYLs, the abilities of PYL1 and PYL2 and the protein complexes PYL13-PYL1 and PYL13-PYL2 to inhibit the phosphatase activity of ABI1 were compared using purified recombinant proteins and the synthetic phosphatase substrate pNPP. […] The phosphatase activity of ABI1 was measured (using pNPP) in the absence or presence of 10 μM ABA, with or without PYLs, and with PYL13-PYL dimers. The concentration of ABI1 and PYLs was 0.3 μM. The A405 value of reaction without ABI1 was set as 0% and that of the reaction with ABI1 but without ABA and PYLs was set as 100%. Error bars indicate s.e.m. (n=6). In the presence of 10 μM ABA, ABI1 phosphatase activity was reduced to 67±6% by PYL1 but only to 88±8% by PYL13-PYL1. In the presence of 10 μM ABA, ABI1 phosphatase activity was reduced to 50±3% by PYL2 but only to 78±10% by PYL13-PYL2.
(§3) Phosphatase activity was measured using the colorimetric substrate p-nitrophenyl phosphate (pNPP, SIGMA). Reactions were performed in a reaction buffer containing 50 mM Tris-HCl, pH 7.5, 25 mM Mg(OAc)2, 2 mM MnCl2, 0.5 mM EGTA, 0.5% β-mercaptoethanol, and 0.5% BSA. ABA and PYLs were added as indicated. The concentration of PP2Cs and PYLs was 0.3 μM. Reactions were initiated by the addition of pNPP to a final concentration of 50 mM. The hydrolysis of pNPP was measured by following the absorbance at 405 nm (A405). Because His-PYL13 is difficult to purify, is prone to degradation, and rapidly loses activity, newly purified PYL13 was used for the phosphatase activity assay.

ABI2 = molecular target: T1, ABI2 (Arabidopsis thaliana, UniProt O04719); assay type: biochemical; settings: PP2Cs and PYLs 0.3 μM
T1 construct: GST (N, cleaved yes); made in house; host or cells: Escherichia coli BL21 (DE3.0)
T1 sequence (O04719 1-423): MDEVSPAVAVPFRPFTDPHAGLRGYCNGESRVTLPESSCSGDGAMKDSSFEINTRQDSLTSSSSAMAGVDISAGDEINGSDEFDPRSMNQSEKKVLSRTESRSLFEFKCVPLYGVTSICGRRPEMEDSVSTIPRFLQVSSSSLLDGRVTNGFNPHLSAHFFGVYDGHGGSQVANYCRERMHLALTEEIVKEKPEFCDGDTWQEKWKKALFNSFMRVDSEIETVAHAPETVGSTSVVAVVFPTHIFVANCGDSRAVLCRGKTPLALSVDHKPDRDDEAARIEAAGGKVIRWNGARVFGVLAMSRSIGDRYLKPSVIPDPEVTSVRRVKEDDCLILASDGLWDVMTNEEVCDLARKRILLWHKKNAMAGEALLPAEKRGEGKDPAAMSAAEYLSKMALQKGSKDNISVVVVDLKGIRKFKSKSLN
Procedure: as §1, §3

PP2CA = molecular target: T2, PP2CA (Arabidopsis thaliana, UniProt P49598); assay type: biochemical; settings: PP2Cs and PYLs 0.3 μM
T2 construct: GST (N, cleaved yes); made in house; host or cells: Escherichia coli BL21 (DE3.0)
T2 sequence (P49598 1-399): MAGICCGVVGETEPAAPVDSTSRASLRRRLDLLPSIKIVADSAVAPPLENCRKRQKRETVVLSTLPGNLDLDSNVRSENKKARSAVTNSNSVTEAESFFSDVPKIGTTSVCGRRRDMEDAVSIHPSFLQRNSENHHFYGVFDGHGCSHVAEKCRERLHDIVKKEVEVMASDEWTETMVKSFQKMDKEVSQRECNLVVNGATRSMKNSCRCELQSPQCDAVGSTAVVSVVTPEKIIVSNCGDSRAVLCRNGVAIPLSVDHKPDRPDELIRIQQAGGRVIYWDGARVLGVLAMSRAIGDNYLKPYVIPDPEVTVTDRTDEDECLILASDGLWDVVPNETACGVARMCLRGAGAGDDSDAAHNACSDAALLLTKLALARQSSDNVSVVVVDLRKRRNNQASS
T2 sequence (Q9SN51 1-164 partner): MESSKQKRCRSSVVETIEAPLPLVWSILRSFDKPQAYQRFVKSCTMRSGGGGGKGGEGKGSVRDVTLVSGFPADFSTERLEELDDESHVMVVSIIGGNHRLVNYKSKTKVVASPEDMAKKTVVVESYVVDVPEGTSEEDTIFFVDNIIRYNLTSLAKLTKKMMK
Procedure: as §1, §3

ABI1 [2] = molecular target: T3, ABI1 (Arabidopsis thaliana, UniProt P49597); assay type: biochemical; settings: PP2Cs and PYLs 0.3 μM
T3 construct: GST (N, cleaved yes); made in house; host or cells: Escherichia coli BL21 (DE3.0)
T3 sequence (P49597 1-434): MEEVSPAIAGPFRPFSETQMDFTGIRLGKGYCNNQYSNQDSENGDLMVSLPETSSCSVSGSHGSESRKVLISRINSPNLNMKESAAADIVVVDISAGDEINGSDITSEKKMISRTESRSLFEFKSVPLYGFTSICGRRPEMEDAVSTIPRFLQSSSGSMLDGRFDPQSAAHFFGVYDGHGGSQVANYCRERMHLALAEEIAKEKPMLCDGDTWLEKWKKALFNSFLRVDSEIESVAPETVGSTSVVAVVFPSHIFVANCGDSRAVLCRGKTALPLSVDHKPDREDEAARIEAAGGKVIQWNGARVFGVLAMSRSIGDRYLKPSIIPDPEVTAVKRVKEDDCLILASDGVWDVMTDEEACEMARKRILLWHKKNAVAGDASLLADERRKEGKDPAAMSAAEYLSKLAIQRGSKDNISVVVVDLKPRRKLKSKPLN
Procedure: as §1, §2, §3

Q: For “PYL2: Arabidopsis thaliana PYL family ABA receptor protein PYL2, AT2G26040”, which “ABI1 phosphatase activity reduced to” value (ABI1 [1]) is on record?
A: 50±3%

B1: PYL13: Arabidopsis thaliana PYR/PYL/RCAR family protein PYL13, SEQ ID NO: 1 (protein, listed as Arabidopsis thaliana)
chain: T2 sequence (Q9SN51 1-164 partner)
Q: What does the source list for B1?
A: ABI2 phosphatase activity reduced to (ABI2; with 1.25 μM ABA): 93±6%; ABI2 phosphatase activity reduced to (ABI2; without ABA): 89±8%; PP2CA phosphatase activity reduced to (PP2CA; with 1.25 μM ABA): 54±5%; PP2CA phosphatase activity reduced to (PP2CA; without ABA, PP2C without ABA and PYLs = 100%): 55±5%; ABI1 phosphatase activity reduced to (ABI1 [2]; with 1.25 μM ABA): 75±3%; ABI1 phosphatase activity reduced to (ABI1 [2]; without ABA): 75±3%
